Columns and labels:
integrin αVβ8 (human) = biological target: T1, integrin αVβ8 (human) (human, UniProt P06756 31-992; P26012 43-684); assay: SPR, mAb captured on anti-Fc CM5 chip, integrin injected, 37 C, 1:1 fit
T1 construct: Integrin heterodimer injected as analyte in SPR; also called avb8
Method: (§1) Antibodies were assessed by surface plasmon resonance (SPR) for the ability to bind to integrin heterodimers. mAbs were immobilized on an anti-Fc CM5 sensor chip, and integrins (0.39-50 nM for and 200 nM for others) were injected at a flow rate of […] for a contact time of 180 s and dissociation time of 400 s, at 37° C. Data were fit (grey lines) to a 1:1 antibody:ligand binding model to determine Kd.

integrin αVβ8 (murine) = biological target: T2, integrin αVβ8 (murine) (murine, UniProt P43406 31-988; Q0VBD0 43-681); assay: as above
T2 construct: Integrin heterodimer injected as analyte in SPR; also called mαVβ8
Method: as §1

[1] = biological target: T3, αvβ8 expressed on the surface of LN229 cells (UniProt P06756 31-1048; P26012 43-769); assay: cell-based competition (adhesion) assay: LN229 cells expressing αvβ8 on plate-immobilized L-TGFβ, Crystal Violet readout
T3 construct: whole, on cells; also called avb8 on LN229 cells
Method: (§2) Exemplary antibodies of the disclosure were evaluated for their ability to block binding of the latent form of TGFβ (L-TGFβ) to in a cell-based competition assay. TGFβ is ubiquitously expressed in the latent form and L-TGFβ promotes an immune suppressive phenotype within the tumor microenvironment. L-TGFβ was immobilized on a polystyrene plate and incubated with LN229 cells expressing and increasing concentrations of muAb1 for 30 mins at 37° C. Bound LN229 cells were quantified by Crystal Violet. Data were fit to a 4-parameter displacement curve to determine IC₅₀. […] The affinities of the two antibodies are similar as measured in this assay.

[2] = biological target: T3, αvβ8 expressed on the surface of LN229 …; assay: cell-based competition (adhesion) assay: LN229 cells expressing αvβ8 on plate-immobilized L-TGFβ with increasing antibody, bound cells quantified by Crystal Violet, 4-parameter fit
Method: as §2

T3 sequence (P06756 31-1048, chain 1 of 2): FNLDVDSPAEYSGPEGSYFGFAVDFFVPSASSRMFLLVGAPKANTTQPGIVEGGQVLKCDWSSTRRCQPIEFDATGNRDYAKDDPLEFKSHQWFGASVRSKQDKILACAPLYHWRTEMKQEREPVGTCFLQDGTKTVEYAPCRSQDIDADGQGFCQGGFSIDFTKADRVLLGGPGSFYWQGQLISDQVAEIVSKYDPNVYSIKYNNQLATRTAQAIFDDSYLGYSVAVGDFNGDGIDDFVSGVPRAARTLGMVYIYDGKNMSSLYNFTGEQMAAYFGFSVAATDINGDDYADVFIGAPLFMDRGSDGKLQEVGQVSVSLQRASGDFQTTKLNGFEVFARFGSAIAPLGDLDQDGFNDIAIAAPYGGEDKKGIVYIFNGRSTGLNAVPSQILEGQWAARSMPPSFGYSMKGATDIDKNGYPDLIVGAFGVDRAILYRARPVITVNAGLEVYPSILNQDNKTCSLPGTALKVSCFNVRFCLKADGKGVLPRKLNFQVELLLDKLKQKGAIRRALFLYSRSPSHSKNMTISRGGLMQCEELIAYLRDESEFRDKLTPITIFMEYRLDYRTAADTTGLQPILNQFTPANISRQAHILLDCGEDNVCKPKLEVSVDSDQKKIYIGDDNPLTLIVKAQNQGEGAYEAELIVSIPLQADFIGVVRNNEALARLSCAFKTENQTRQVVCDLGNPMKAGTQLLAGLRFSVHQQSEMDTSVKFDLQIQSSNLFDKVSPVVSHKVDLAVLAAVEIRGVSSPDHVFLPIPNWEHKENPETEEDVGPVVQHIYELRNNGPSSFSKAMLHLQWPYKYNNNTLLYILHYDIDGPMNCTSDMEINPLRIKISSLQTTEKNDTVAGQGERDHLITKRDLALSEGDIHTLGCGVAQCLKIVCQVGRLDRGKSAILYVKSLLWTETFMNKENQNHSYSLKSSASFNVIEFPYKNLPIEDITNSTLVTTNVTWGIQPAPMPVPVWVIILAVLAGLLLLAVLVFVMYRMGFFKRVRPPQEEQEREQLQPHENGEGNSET
T3 sequence (P26012 43-769, chain 2 of 2): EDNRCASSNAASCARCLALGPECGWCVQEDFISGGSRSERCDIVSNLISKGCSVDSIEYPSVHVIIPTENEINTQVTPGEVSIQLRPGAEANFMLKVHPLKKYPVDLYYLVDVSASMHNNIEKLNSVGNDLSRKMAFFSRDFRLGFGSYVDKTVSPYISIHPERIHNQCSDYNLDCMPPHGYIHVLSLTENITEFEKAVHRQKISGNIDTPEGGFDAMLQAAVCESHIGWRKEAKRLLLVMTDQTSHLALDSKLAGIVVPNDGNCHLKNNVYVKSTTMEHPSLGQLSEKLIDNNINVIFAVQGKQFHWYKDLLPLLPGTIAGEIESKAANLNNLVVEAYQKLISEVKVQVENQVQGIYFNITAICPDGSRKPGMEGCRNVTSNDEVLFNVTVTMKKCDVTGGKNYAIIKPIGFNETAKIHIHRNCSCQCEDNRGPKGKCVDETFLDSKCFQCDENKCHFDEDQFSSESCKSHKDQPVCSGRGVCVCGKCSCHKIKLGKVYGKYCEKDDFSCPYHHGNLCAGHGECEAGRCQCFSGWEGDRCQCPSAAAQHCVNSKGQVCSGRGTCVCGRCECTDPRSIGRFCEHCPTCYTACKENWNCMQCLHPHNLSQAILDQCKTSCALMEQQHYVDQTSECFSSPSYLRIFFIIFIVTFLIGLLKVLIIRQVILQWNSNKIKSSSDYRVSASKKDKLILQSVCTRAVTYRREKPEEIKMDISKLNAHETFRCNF
T2 sequence (P43406 31-988, chain 1 of 2): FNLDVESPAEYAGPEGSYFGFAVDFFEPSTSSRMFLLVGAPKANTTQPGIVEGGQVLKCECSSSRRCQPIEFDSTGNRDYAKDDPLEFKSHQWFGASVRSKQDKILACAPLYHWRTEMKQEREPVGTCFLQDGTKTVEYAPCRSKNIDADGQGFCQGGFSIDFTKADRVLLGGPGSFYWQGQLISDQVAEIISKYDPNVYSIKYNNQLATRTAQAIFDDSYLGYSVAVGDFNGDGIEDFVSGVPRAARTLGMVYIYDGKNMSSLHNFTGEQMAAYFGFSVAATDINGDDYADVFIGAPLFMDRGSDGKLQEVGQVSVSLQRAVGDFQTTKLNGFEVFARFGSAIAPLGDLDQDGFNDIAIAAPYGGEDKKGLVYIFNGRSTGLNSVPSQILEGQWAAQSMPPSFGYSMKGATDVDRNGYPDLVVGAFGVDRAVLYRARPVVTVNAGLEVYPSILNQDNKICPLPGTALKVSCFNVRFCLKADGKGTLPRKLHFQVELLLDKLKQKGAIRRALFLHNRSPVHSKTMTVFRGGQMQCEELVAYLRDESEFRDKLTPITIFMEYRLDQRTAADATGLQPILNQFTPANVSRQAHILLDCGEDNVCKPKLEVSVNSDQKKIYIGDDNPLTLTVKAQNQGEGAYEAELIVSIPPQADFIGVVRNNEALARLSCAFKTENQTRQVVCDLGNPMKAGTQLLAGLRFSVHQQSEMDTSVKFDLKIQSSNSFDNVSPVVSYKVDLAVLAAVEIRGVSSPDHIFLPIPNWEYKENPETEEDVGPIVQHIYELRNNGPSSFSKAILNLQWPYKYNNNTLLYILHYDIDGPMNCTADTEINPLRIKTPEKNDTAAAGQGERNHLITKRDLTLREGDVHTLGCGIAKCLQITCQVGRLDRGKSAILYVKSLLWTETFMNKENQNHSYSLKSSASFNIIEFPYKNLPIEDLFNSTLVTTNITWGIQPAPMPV
T2 sequence (Q0VBD0 43-681, chain 2 of 2): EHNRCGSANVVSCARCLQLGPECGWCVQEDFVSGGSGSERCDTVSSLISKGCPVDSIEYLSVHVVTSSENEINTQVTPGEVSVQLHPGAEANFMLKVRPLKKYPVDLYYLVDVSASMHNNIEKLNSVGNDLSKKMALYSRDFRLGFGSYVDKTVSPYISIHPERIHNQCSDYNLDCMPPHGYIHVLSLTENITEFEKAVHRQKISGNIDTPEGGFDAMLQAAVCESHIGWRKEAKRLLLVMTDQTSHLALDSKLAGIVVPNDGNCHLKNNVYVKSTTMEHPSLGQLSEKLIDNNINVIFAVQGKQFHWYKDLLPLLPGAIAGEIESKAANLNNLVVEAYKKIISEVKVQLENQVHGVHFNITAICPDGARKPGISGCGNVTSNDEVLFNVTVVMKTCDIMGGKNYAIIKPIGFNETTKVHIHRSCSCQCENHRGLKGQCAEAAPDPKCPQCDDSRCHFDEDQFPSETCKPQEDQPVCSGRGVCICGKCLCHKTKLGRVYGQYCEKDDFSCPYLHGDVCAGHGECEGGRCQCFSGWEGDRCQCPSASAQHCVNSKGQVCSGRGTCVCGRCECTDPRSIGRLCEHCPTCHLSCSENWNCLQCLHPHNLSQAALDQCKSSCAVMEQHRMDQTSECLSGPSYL
T1 sequence (P06756 31-992, chain 1 of 2): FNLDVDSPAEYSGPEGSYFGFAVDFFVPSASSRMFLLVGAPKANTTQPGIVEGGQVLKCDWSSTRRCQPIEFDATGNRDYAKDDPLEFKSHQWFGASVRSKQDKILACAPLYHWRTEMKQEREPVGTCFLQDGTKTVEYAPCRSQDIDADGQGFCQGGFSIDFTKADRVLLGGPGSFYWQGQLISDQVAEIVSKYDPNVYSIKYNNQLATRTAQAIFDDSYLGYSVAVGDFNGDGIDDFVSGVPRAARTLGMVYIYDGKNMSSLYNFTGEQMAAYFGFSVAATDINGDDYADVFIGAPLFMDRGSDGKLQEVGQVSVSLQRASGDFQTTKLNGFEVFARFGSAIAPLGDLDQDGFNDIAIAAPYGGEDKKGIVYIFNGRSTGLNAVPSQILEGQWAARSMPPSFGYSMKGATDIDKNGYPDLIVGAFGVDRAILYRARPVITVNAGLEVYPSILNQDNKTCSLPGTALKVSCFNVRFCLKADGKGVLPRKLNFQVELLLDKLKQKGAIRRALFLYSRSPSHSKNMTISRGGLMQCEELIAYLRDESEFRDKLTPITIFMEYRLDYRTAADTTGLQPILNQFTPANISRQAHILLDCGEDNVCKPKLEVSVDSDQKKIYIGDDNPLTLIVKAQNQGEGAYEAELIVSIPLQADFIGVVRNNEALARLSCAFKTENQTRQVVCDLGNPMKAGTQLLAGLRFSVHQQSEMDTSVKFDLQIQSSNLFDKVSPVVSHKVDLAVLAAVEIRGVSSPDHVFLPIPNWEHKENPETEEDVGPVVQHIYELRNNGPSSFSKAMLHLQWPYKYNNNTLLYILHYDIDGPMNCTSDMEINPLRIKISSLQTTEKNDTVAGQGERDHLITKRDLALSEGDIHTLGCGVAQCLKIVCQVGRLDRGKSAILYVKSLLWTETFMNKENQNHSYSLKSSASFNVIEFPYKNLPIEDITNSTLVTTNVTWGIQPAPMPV
T1 sequence (P26012 43-684, chain 2 of 2): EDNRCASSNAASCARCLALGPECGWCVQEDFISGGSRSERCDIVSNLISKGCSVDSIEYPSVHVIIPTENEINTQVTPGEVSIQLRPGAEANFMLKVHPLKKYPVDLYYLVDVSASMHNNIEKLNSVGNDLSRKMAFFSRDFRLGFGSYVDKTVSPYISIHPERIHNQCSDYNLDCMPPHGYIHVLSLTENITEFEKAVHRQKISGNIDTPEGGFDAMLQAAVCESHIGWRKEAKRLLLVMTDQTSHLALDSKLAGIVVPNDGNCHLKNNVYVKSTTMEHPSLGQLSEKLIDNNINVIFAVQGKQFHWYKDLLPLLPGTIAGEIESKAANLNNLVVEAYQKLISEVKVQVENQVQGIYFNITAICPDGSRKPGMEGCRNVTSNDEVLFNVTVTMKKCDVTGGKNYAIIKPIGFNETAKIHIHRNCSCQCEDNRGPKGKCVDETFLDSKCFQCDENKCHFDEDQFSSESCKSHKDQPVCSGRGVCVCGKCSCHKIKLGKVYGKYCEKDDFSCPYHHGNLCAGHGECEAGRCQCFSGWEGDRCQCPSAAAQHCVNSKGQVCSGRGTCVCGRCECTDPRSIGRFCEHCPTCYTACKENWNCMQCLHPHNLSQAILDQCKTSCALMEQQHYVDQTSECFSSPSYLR

| Kd (integrin αVβ8 (human)) [nM] | Kd (integrin αVβ8 (murine)) [nM] | IC50 (read off the curve) [1] [nM] | IC50 [2] [nM] | Binder |
| --- | --- | --- | --- | --- |
| < 5 | < 5 | ~4 | < 5 | huAb1 (antibody, V domains shown, also called anti-αvβ8 antibody) VH: QIQLVQSGSELKKPGASVKVSCKASGYTFTKYSMHWVRQAPGQGLEWMARINTETGNPTYADGFRGRFVVSLDTSVSTAYLQISSLKAEDTAVYYCAIFYYGRDTWGQGTTVTVSS VL: DIVMTQSPDSLAVSLGERATINCKSSQSLLHSRSRKNYLAWYQQKPGQPPKLLIYWASTRESGVPDRFSGSGSGTDFTLTISSLQAEDVAVYYCKQSYNLLSFGQGTKLEIK |
| < 15 | < 15 | ~1 | < 5 | muAb1 (antibody, V domains shown, also called murine-human hybrid monoclonal anti-αVβ8 antibody; murine compatible version of huAb1) VH: QIQLVQSGSELKKPGASVKVSCKASGYTFTKYSMHWVRQAPGQGLEWMARINTETGNPTYADGFRGRFVVSLDTSVSTAYLQISSLKAEDTAVYYCAIFYYGRDTWGQGTTVTVSS VL: DIVMTQSPDSLAVSLGERATINCKSSQSLLHSRSRKNYLAWYQQKPGQPPKLLIYWASTRESGVPDRFSGSGSGTDFTLTISSLQAEDVAVYYCKQSYNLLSFGQGTKLEIK |

Reference: patent US20250195647A1 (CORBUS PHARMACEUTICALS, published 2025)
